Test system: MeCP2 (Homo sapiens)
Experiment: cell_activity
Settings: 5mC at CpG (SssI); S2 cells with Sp1; methylated promoter alone repressed 3-fold; binding inferred from repression

cyclin A1 promoter, SssI methylated
activity (fold repression): 12

Reference: patent US20020053092
